Experimental data taken from patent US20030224972A1.

Target: MC1-R
Assay: cell-based or functional assay

inhibits activation of the MC1-R: 220 pM
Substance: Recombinant mouse agouti signal protein (from UniProt Q03288 23-131) (ligand)
